From paper PMC4802922, “Conserved motif VIII of murine DNA methyltransferase Dnmt3a is essential for methylation activity”

Experiments:
Dnmt3a-CD R200E = Dnmt3a-CD R200E (Mus musculus, UniProt O88508 608-908, R786E); test: fluorescence polarization; Kd1; 0.1 mM AdoHcy; Fluorescence polarization: 10 nM duplex, 0.1 mM AdoHcy, Dnmt3a reaction buffer (composition not given), 25 °C; enzyme up to 600-800 nM; conditions: protein: recombinant; tags: His6; chain copies: 2; label: 5'-FAM on strand 1 (hexamethylene linker); blunt
Sequence of Dnmt3a-CD R200E (O88508 608-908 R786E): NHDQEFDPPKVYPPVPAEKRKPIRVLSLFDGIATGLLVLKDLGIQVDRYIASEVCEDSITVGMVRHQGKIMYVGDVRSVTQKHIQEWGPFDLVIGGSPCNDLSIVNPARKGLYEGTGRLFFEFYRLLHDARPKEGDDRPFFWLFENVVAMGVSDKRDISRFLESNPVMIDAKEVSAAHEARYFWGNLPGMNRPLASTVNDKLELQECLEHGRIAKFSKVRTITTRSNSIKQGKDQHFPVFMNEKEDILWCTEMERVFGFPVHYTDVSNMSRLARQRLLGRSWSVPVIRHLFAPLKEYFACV

Dnmt3a-CD R200A = Dnmt3a-CD R200A (Mus musculus, UniProt O88508 608-908, R786A); test: as above; conditions: protein: recombinant; tags: His6; chain copies: 2; label: 5'-FAM on strand 1 (hexamethylene linker); blunt
Sequence of Dnmt3a-CD R200A (O88508 608-908 R786A): as the sequence (O88508 608-908 R786E) above, with E179A counted along it

Dnmt3a-CD R200K = Dnmt3a-CD R200K (Mus musculus, UniProt O88508 608-908, R786K); test: as above; conditions: protein: recombinant; tags: His6; chain copies: 2; label: 5'-FAM on strand 1 (hexamethylene linker); blunt
Sequence of Dnmt3a-CD R200K (O88508 608-908 R786K): as the sequence (O88508 608-908 R786E) above, with E179K counted along it

Dnmt3a-CD wt = Dnmt3a-CD wt (Mus musculus, UniProt O88508 608-908); test: fluorescence polarization; Kd1 (first complex); 0.1 mM AdoHcy; Fluorescence polarization: 10 nM duplex, 0.1 mM AdoHcy, Dnmt3a reaction buffer (composition not given), 25 °C; enzyme up to 600-800 nM; conditions: protein: recombinant; tags: His6 (N-terminal in Methods, C-terminal in Results); chain copies: 2; label: 5'-FAM on strand 1 (hexamethylene linker); blunt
Sequence of Dnmt3a-CD wt (O88508 608-908): as the sequence (O88508 608-908 R786E) above, with E179R counted along it

B1: fGCGC/CGCG (dsDNA)
DNA 1: CTGAATACTACTTGCGCTCTCTAACCTGAT
DNA 2: ATCAGGTTAGAGAGCGCAAGTAGTATTCAG
With B1 the Kd (Dnmt3a-CD R200E) was 159 ± 37 nM, the Kd (Dnmt3a-CD R200A) was 79 ± 17 nM and the Kd (Dnmt3a-CD R200K) was 55 ± 14 nM. The Kd (Dnmt3a-CD wt) was 73 ± 17 nM.
